The source of these data is patent US20190194319A1 (AbbVie / Abbott, published 2019).

In experiment [1] the target is T1, human ASCL1 (Achaete-scute homolog 1) (human, UniProt P50553 1-236).
T1 construct: also called hASCL1; immobilized human ASCL1
T1 sequence: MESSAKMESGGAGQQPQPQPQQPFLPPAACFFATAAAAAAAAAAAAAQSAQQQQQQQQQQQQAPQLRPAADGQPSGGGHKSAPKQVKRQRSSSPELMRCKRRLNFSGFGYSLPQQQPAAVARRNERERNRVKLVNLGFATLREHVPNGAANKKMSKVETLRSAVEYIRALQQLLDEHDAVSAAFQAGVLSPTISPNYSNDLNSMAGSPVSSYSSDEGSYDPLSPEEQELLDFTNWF
As to the kind of experiment: screening of Example 2 (ELISA) or cells. A general note: ELISA stands for enzyme-linked immunosorbent assay.

Experiment [2] addresses T2, hASCL1 expressed in HEK-293T cells (pLMEGPA-hASCL1-NFlag) (human, UniProt P50553 1-236).
T2 construct: also called HEK293T cells transiently transduced with hASCL1; ASCL1 engineered cells
T2 sequence: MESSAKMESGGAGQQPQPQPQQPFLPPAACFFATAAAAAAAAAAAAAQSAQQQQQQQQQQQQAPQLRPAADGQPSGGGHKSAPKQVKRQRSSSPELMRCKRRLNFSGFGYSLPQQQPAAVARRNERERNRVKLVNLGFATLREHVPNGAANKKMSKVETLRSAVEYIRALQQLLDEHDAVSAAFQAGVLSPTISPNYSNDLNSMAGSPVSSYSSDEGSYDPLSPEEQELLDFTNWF
The experiment can be described thus: intracellular flow cytometry (gMFI) on permeabilised HEK293T cells transduced with hASCL1, control cells transduced with GFP only; antibody 10 ug/ml. How it is done:
1×10⁵ per well of HEK293T cells transiently transduced with hASCL1(as described in Example 1), and HEK293T cells transiently transduced with GFP only were washed with cold PBS and then incubated with a solution of PBS and a Dylight 450 Fixable viability dye for 30 minutes. After incubation, the cells were washed twice with PBS. To permeate the cell walls 100 ul of BD Cytofix/Cytoperm was added to the cells and left to incubate for 20 minutes on ice. Cells were then washed with BD Phosflow perm/wash solution. Purified antibody at a final concentration of 10 ug/ml was then added to the cells in 45 ul of BD Phosflow perm/wash solution, incubated on ice for 30 minutes, and then washed with BD Phosflow perm/wash 2 times. 50 ul of Alexa Fluor 647 conjugated Goat-anti-mouse IgG secondary antibody, was added at 1 ug/ml dissolved in BD Phosflow perm/wash and incubated on ice for 30 minutes, then washed with BD Phosflow perm/wash 3 times. The cells were then resuspended in FACS buffer to be read on BD FACS Canto according to the manufacturer's instructions.
The FlowJo software package (FlowJo LLC) was used to calculate gMFI (geometric Mean Fluorescence Intensity) for each of the anti-ASCL1 antibodies.

The target of experiment [3] is T1, human ASCL1 (Achaete-scute homolog 1). The experiment can be described thus: ELISA with purified antibody: staining against hASCL1 divided by staining against an irrelevant protein (form of the coated hASCL1 not stated in paragraph 180; the screen it confirms used hASCL1-GST). How it is done:
A second immunization campaign was conducted similar to the first with the following modifications: 1) 299×10⁶ cells) were fused with non-secreting SP2/0-Ag14 myeloma cells (ATCC #CRL-1581) at a ratio of 1:1 by electro cell fusion using a model BTX Hybrimmune System (BTX Harvard Apparatus). On day 6, after the fusion, the hybridoma cells were not frozen and were sorted on that day. After the 10 day culture, 6×384 clones were screened by ELISA selecting for antibodies positive to hASCL1-GST (glutathione S-transferase) and counter screened against an irrelevant protein tagged with GST. As part of this, ALK phosphatase-labeled goat anti-mouse IgG diluted 1:5000 in PBSA was used instead of HRP-labeled goat anti-mouse IgG diluted 1:10:000. ELISA samples were analyzed at OD405 instead of OD450.
To confirm the results of the ELISA soup screen a similar ELISA was run on purified antibodies from selected clones. The ELISA positive ratio, (defined as ELISA staining against hASCL1 divided by the ELISA staining against an irrelevant protein) was then determined and set forth in FIG. 3 in the column labeled “ELISA positive ratio”.

B1: SC72.91 (antibody, V domains shown)
VH: QVQLQQSGPEVVKPGASVKLSCKASGYTFTTYDINWVKQRPGQGLEWIGWIYFRDGTNKYNEKFKGKATLTVDTSSSTAYMELHSLTSEDSAVYFCASVYDGYYVSGFDIMDYWGQGTSVTVSS
VL: DVVLTQTPLSLPVSLGDQASIYCRSSQSIVHSNGNTYFEWYLQKPGQSPKLLIYKVSNRLSGVPDRFSGSGSGTDFTLKISRVEAVDLGIYYCFQASHVPFTFGAGTKLELK
notes: Murine monoclonal antibody from a hybridoma; light chain amplified with kappa primers
As for B1, the binding result in experiment [1] is recorded as “binds”.

B2: SC72.132 (antibody, V domains shown)
VH: EVKLVESEGGLVQPGSSMKLSCTASGFTFSDYYMAWVRQVPEKGLEWVATIDYDGSNTYYLDSLKSRFIISRDNAKNILYLQMSSLKSEDTATYYCARDGGYDEDYFDYWGQGTTLTVSS
VL: DIVMSQSPSSLAVSVGEKVTLSCKSSQTLLYSSNQQNYLAWYQQKPGQSPKLLIYWASTRESGVPDRFTGSGSGTDFTLTISSVKAEDLAVYYCHQYYTYPFTFGSGTKLEIK
notes: as for B1
With B2, in experiment [1], the binding result is “binds”.

B3: SC72.52 (antibody, V domains shown)
VH: QVQLQQPGSVLVRPGASVKLSCKASGYTFTSYWMHWVKQRPGQGLEWIGEIYPNSGRTNYNEKFKGKATLTVDTSSSTAYVDLSSLTSEDSAVYYCHYYDDNYGYWGQGTTLTVSS
VL: DIVITQDELSNPVTSGESVSISCRSSKSLLYKDGKTYLNWFLQRPGQSPQLLIYLMSTRASGVSDRFSGSGSGTDFTLEISRVKAEDVGVYYCQQFVEYPLTFGAGTKLELK
notes: as for B1
Consider B3, for which the binding result in experiment [1] is listed as “binds”.

B4: SC72.201 (antibody, V domains shown)
VH: EVNLEESGGGLVQPGGSMKLSCVASGFTFSNYWMNWVRQSPEKGLEWVAQIRSKSDNYATHYAESVKGRFTISRDDSKSSVYLQMNNLRSEDTGIYYCRTGPDVWGTGTTVTVSS
VL: DIQMTQSPASLSVSVGETVTITCRASENIYSSLAWYQQKQGNSPQLLVYAATKLADGVPSRFSGSGSGTQYSLKINSLQSEDFGSYYCQHFWGTTWTFGGGTKLEIK
notes: Murine monoclonal antibody from a hybridoma of the second immunization campaign; light chain amplified with kappa primers
Consider B4, for which, in experiment [2], the IC ratio worked out at 0.67. Also, the ELISA positive ratio in experiment [3] stood at 11.7.

B5: SC72.63 (antibody, V domains shown)
VH: EVQLLQSGPELVKPGASVKMSCKASGYTLTDYNLHWVKQSHAKSLEWIGYINPYNGVTSYNQRFKGKATLTVNKSSSTAFMEFRSLTSEDSAVYYCVSLYYGDDPFACWGQGTLVTVST
VL: DIQMTQSPASLSASVGETVTMTCRASENIYSNLAWYQQKQGKSPQLLVYAATNLADDVPSRFSGSGSGTQFSLKINSLQPEDFGIYYCHHFYGSPLTFGAGTKLELK
notes: as for B1
Regarding B5, the binding result in experiment [1] is “binds”.

B6: SC72.94 (antibody, V domains shown)
VH: QVQLQQPGTELVKPGASVKLSCKASAYTFTSLWIHWVKQRPGQGLEWIGDINPSIGDTYYNERFKSKATLTVDKSSSTAYMQLSSLTSEDSAVYYCTTGDSWGQGTTLTVSS
VL: DIQMNQSPSSLSASLGDTITITCRASQGISIWLSWYQQKPGNIPKLLIYKASNLHTGVPPSFSGSGSGTDFTLTISSLQPEDIATYYCLQSQSYPWTFGGGTKLEIK
notes: as for B1
Regarding B6, in experiment [1], the binding result is on record as “binds”.

B7: SC72.76 (antibody, V domains shown)
VH: QVQLKESGPGLVAPSQSLSITCTVSDFSLTNYAVHWVRQSPGKGLEWLGVIWSDGNTDYNAPFISRLSISKDNSKSQVFFKMNSLQADDTAIYYCASYGDSAYWGQGTLVTVSA
VL: DIVLTQSPASLTVSLGQRATISCRASQSVRTSNYSYMHWYQQKPGQPPKLLIKYASNLESGVPARFSGSGSGTDFTLNIHPVEEEDTATYYCQHHWEIPFTFGGGTKLEIK
notes: as for B1
Regarding B7, the binding result in experiment [1] was “binds”.

B8: SC72.93 (antibody, V domains shown)
VH: QVQLQQSGAELVRPGASVTLSCKASGYIFIDYEMHWVKQTPVHGLEWIGSIDPETGDTVYNQKFKGKATLTADKSSSTAYMELRSLTSEDSAVYYCSRGGLDYWGQGTTLTVSS
VL: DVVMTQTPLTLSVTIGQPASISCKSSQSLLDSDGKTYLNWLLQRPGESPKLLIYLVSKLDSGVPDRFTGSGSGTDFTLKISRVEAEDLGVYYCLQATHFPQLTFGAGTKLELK
notes: Murine monoclonal antibody from a hybridoma; same VL as SC72.2; light chain amplified with kappa primers
Turning to B8, in experiment [1], the binding result is “binds”.

B9: SC72.216 (antibody, V domains shown)
VH: QIQLVQSGPELRKPGETVKISCKASGYTFTNYPMHWVKQAPGKGFKWMGWINTYSGVPSYADDFKGRFAFSLETSASSAYLQINNLKNEDMATYFCARHNYNSYDVFAYWGQGTLVTVSA
VL: DIVVTQSPASLAVSLGQRATISCKASQSVDYDGDSYMNWYQQKPGQPPKLLIYGASNLESGIPARFSGSGSGTDFTLNIHPVEEEDAATYYCQQSNEDPYTFGGGTKLEIK
notes: as for B4
Regarding B9, the IC ratio in experiment [2] is 1.86. Also, in experiment [3], the ELISA positive ratio was determined as 13.

B10: SC72.165 (antibody, V domains shown)
VH: QVQLQQPGAELVRPGASVRLSCKASGYSFTSYWINWVKQRPGQGLEWIGNIYPGSSNTNYNEKFKRKATLTVDTSSSTAYMQLSSLTSDDSAVYYCARSESDYWGQGTTLTVSS
VL: DIVLTQSPASLAVSPGQRATISCKASQSVGYDGDTYLSWYQQKPGQPPKLLIYGVSILESGIPARFSGSGSGTDFTLNIHPVEEEDAATYYCQQSSEDPYTFGGGTKLEIK
notes: as for B1
Turning to B10, the IC ratio in experiment [2] was determined as 3.69. The ELISA positive ratio in experiment [3] was 14.2.

B11: SC72.181 (antibody, V domains shown)
VH: QVQLQQPGAEVVKPGASVRLSCKASGYTFTSYWINWVKQRPGQGLEWIGNIYPGSSSTNYNEKFKSKATLTVDTSSSTAYMQLSSLTSDDSAVYYCSRSESDYWGQGTTLTVSS
VL: DIVLTQSPASLAVSLGQRATISCKASQSVDDDGGTYMSWYQQKPGQPPKLLIYGVFILESGIPARFSGSGSGTDFTLNIHPVEEEDAATYYCQQSNEDPYTFGGGTKLEIK
notes: as for B1
B11: in experiment [1], the binding result is “binds”.

B12: SC72.28 (antibody, V domains shown)
VH: DVQLQQSGAELVRPGALVKLSCKASGFNIKDYLIHWVKQRPEQGLEWIGCIDPENGNTIYDPRFQGKAKITSDTSSTTAYLRLTSLTSEDTAVYYCGRGGLDYWGQGTTLTVSS
VL: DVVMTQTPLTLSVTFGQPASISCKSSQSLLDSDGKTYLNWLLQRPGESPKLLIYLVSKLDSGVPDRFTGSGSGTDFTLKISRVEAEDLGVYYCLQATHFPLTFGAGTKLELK
notes: as for B1
With B12, the binding result in experiment [1] is “binds”.

B13: SC72.96 (antibody, V domains shown)
VH: EVQLQQSGPELVKPGASVKMSCKASGYTLTAYNIHWVKQSHGKSLEWIGFINPHSGGTTYNEKFKGKATLTVNKSSSTANMELRSLTSEDSAVYYCASIYYYGSSYFDHWGQGTTLTVSS
VL: DIQMTQSPASLSASVGETVTMTCRASENIHSNLVWYQQKQGKSPQLLVYAATNLADGVPSRFSGSGSGSQFSLKIDSLQPEDFGSYLCQHFYGTPRTFGGGTKLEIK
notes: as for B1
Turning to B13, the binding result in experiment [1] is given as “binds”.
